Patent US20060240044A1

Biological target: human Vβ1.1 TcR (human)
Test: cell-based or functional assay

| Substance | Percentage of Vβ enrichment (Vβ 1.1) | Vβ cDNA clones from toxin stimulated T cells identified as Vβ1.1 | stimulation of T cells carrying the Vβ1.1 TcR, against ConA (further results) | stimulation of T cells carrying the Vβ1.1 TcR, against ConA (initial results) |
| --- | --- | --- | --- | --- |
| recombinant SPE-L | 8.44% | 5 of 5 cDNAs | > 80 times | > 50 times |
| recombinant SPE-M | 6.75% | 4 of 5 cDNAs | 70 times | > 60 times |
